In experiment [1] the target is high molecular weight binding protein (150K) in normal rat serum (rat). The experiment is described as follows: radiolabelled IGF-1 incubated with serum; area under the curves of the high and low molecular weight peaks.
In experiment [2] the target is high molecular weight binding protein (150K) in normal human serum (human). The description is as above.

As for O-glycosylated IGF-1 (ligand), the percent bound to the large molecular weight form compared to the authentic IGF-1 in experiment [1] and in experiment [2] was 50 to 60% throughout.
